Residue numbers refer to the chain shown, from its start.
B1: mAb 1135 (antibody, V domains shown)
VH: EVQLVESGGGLVQPGRSLRLSCAASGLTFEDYAMHWVRQVPGKGLEWVSGISWNSGTIGYADSVKGRFIISRDNAKNSLYLQMRSLRAEDTALYYCAKDVGFGELLYYAFDIWGQGTMVTVSS
VL: QSALTQPASVSGSPGQSITISCTGTSSDVGGYNYVSWYQQHPGKAPKLMIYDVSNRPSGVSNRFSGSKSGNTASLTISGLQAEDEADYYCSSYTSSSTVVFGGGTKLTVLG
B2: mAb 1075 (antibody, V domains shown)
VH: QVQLVQSGAEVKKPGASVKVSCKVSGYTLIELSMHWVRQAPGKGLEWMGGFDPEDGETIYAQKFQGRVTMTEDTSTDTAYMELSSLRSEDTAVYYCATEWAYYGSGSYLGYWGQGTLVTVSS
VL: EIVMTQSPATLSVSPGERATLSCRASQSVSSNLAWFQQKPGQAPRLLIYGASTRVTVIPARFSGSGSGTEFTLTISSLQSEDFAVYYCQQYNNWPRTFGQGTKVEIKR
B3: mAb 970 (antibody, V domains shown)
VH: EVQLVESGGGLVQPGGSLRLSCAASGFTFSSYWMSWVRQAPGKGLEWVANINKDGSEKYYVDSVKGRFTISRDNAKNSLYLQMNSLRAEDTAVYFCARDYRYFDWLLSQIDLEIDYFDYWGQGTLVTVSS
VL: not shown
B4: mAb 1015 (antibody, V domains shown)
VH: EVQLVESGGGLVQPGGSLRLSCAASGFTFSSYWMHWVRQAPGKGLVWVSHINSDGSSTSYADSVKGRFTISRDNAKNTLYLQMNSLRAEDTAVYYCARGLRYFDLDVWGQGTTVTVSS
VL: QSVLTQPPSVSEAPRQRVTISCSGSSSNIGNNAVNWYQQLPGKAPKLLIFYDDLLPSGVSDRFSGSKSGTSASLAISGLQSEDEADYYCAAWDDSLNGGVFGGGTKLTVLG
B5: mAb 894 (antibody, V domains shown)
VH: QVQLVQSGAEVKKPGASVKVSCKVSGYTLPELSIHWVRQAPGKGLEWMGGFDPENAETIYTQKFQGRLTMTEDTSTDTAYMELSSLRSEDTAMYYCATSFVLMPAALGDYSYYYGMDVWGQGTTVTVSS
VL: not shown
B6: mAb 896 (antibody, V domains shown)
VH: EVQLVESGGGVVQPGGSLRLSCAASGFTFDDYAMHWVRQVPGKGLEWVSLISGDGGSTYYADSVKGRFTISRDNSKNSLYVQMNSLRTEDTALYYCVKDRGGSGWDLNHYYYGMDVWGQGTTVTVSS
VL: DIQLTQSPSFLSASVGDRVTVTCRASQGISSYLAWYQQKPGKAPKLLIYAAYTLQSGVPSRFSGSGSETEFTLTISSLQPEDFATYYCQQVKSYPLTFGGGTKVEIKR
B7: mAb 936 (antibody, V domains shown)
VH: EVQLVESGGGLVQPGRSLTLSCAGSGFTFDDYAMHWVRQAPGKGLEWVSGISWNSGSIGYADSVKGRFTISRDNAKNSLYLQMNSLRAEDTALYYCAKDVSYDSSGYYNNAFDIWGQGTMVTVSS
VL: B6 VL with V21I, Y52S, E68G, V91L, K92Y, L96V, G100Q, K103R, V104L
B8: mAb 923 (antibody, V domains shown)
VH: EVQLVESGGGVVRPGGSLRLSCAASGFIFDDYDMTWVRQAPGKGLEWVSGISWNGGNTGYADSVKGRFTISRDNAKNSLYLQMNSLRAEDTALYHCAVIMSPIPRYSGYDWAGGAFDIWGQGTMVTVSS
VL: SSELTQDPAVSVALGQTVRITCQGDSLRSYYASWYQQKPGQVPILVIYDKNNRPSGIPDRFSGSSSGNTASLTITGAQAEDEADYYCNSRDSSGNAVVFGGGTKLTVLG
B9: mAb 1037 (antibody, V domains shown)
VH: QITLKESGPTLVKPTQTLTLTCTFSGFSLSTSGVGVGWIRQPPGKALEWLALIYWDDDKRYSPSLKSRLTITKDTSKNQVVLTMTNMDPVDTATYYCAHHTITRINDYWGQGTLVTVSS
VL: QSALTQPASVSGSPGQSITISCTATSSDVGAYNYVSWYQQHPGKAPKLMIYDVSKRPSGVSNRFSGSKSGNTASLTISGLQAEDEADYYCSSYTSSSTVFGGGTKLTVLG
B10: mAb 1036 (antibody, V domains shown)
VH: QVQLVQSGAEVKKPGSSVKVSCKASGGTLSSYTISWVRQAPGQGLEWMGRIIPILGIADYAQKFQGRVTITADKSTTTAYMDLSSLGSEDTALYYCASAPKDWSSGFDYYYGMDVWGQGTMVTVSS
VL: DIVMTQTPLSLSVTPGQPASISCKSSQSLLNSDGKTYLYWYLQKAGQPPQLLIYEVSNRFSGVPERFSGSGSGTDFTLKISRVEAEDVGVYYCMQSVQLPPYTFGQGTKLEITR

molecular target: SARS-CoV full length Spike (SARS-CoV, UniProt P59594 14-1190)

Row | Binder | median fluorescence intensity, fold over isotype control [fold over isotype]
1 | B1 | 0.92
2 | B2 | 0.91
3 | B3 | 547
4 | B4 | 0.91
5 | B5 | 1.1
6 | B6 | 0.97
7 | B7 | 0.95
8 | B8 | 773
9 | B9 | 4.36
10 | B10 | 1.05

molecular target: T1, HKU1 full length Spike (human coronavirus HKU1, UniProt Q5MQD0 13-1276)
T1 sequence: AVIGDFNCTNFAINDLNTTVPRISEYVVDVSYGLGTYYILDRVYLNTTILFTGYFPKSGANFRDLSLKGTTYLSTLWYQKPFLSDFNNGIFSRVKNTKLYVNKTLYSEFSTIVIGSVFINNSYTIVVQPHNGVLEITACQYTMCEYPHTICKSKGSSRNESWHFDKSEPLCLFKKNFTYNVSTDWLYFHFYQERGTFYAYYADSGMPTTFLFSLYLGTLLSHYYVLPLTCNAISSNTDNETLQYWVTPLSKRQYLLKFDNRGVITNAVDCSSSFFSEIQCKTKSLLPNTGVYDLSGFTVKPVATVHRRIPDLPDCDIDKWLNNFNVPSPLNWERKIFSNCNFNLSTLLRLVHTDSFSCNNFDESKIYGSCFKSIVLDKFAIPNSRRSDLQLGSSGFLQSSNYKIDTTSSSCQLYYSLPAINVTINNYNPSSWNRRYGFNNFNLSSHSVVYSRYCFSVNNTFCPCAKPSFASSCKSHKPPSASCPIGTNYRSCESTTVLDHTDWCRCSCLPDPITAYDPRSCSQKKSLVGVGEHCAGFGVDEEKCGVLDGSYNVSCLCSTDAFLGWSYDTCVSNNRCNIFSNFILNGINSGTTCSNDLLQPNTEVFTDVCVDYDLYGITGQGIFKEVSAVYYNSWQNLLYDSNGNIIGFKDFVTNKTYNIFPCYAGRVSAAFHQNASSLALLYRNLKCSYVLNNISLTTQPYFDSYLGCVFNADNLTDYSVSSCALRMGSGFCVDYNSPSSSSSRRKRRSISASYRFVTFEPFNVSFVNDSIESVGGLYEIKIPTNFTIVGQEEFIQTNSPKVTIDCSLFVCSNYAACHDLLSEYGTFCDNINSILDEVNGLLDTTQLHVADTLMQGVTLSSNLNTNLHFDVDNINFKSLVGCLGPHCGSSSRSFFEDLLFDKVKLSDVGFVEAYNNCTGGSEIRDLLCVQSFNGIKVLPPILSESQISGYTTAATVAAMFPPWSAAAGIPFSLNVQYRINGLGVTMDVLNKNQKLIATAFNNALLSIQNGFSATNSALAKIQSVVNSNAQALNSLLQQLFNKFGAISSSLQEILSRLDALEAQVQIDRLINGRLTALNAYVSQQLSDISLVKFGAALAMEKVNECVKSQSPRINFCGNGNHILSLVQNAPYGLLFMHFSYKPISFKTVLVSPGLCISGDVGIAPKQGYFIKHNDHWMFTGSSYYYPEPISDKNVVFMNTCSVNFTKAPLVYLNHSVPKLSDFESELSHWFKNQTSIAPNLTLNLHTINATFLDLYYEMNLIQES

Row | Binder | median fluorescence intensity, fold over isotype control [fold over isotype]
11 | B1 | 0.83
12 | B2 | 0.93
13 | B3 | 0.88
14 | B4 | 1.04
15 | B5 | 1.18
16 | B6 | 1.07
17 | B7 | 1.02
18 | B8 | 1.42
19 | B9 | 1.43
20 | B10 | 0.94

molecular target: T2, MERS full length Spike (MERS-CoV, UniProt K9N5Q8 18-1291)
T2 sequence: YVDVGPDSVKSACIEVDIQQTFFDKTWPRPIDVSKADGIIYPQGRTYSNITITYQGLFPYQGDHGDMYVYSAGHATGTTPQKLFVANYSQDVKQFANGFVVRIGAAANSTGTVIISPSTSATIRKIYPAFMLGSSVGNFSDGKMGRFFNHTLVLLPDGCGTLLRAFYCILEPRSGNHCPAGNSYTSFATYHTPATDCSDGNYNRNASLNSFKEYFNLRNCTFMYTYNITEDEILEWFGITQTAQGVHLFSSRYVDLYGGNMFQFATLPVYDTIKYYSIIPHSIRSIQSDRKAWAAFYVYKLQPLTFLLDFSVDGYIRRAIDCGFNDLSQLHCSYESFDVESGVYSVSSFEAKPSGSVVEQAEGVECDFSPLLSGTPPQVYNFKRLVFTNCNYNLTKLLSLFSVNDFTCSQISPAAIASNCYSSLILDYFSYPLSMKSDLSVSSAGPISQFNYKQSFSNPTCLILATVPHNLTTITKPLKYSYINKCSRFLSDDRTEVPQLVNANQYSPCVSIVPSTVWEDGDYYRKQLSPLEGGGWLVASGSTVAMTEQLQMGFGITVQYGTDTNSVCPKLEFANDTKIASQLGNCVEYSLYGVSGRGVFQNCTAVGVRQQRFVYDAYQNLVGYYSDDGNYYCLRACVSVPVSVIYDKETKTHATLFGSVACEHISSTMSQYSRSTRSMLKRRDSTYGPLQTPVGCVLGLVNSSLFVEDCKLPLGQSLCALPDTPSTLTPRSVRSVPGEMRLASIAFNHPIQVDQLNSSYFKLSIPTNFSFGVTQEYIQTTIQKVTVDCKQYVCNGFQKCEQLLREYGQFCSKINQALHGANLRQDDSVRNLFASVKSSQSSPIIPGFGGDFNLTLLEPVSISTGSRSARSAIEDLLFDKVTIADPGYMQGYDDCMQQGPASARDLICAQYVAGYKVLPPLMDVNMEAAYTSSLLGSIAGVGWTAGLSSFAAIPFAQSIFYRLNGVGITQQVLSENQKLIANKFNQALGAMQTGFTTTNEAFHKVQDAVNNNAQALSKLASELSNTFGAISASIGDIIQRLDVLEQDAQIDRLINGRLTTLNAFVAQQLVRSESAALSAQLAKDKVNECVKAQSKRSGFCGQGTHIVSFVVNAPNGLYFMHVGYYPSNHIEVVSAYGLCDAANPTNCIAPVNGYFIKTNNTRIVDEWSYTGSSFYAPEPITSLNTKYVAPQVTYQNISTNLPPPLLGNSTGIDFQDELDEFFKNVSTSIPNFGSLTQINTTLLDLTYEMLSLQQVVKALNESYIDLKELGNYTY

Row | Binder | median fluorescence intensity, fold over isotype control [fold over isotype]
21 | B1 | 0.93
22 | B2 | 0.89
23 | B3 | 0.87
24 | B4 | 0.85
25 | B5 | 1.06
26 | B6 | 1.02
27 | B7 | 0.92
28 | B8 | 1.08
29 | B9 | 1.06
30 | B10 | 1.07

From patent US20220356229A1 (published 2022)
